Test results: the RNAGym collection of RNA variant scans (doi:10.1073/pnas.2313332121)
Fewer inactive variants are shown than the library holds.

B1: TPR 5TU (parent)
chain: GGAUCUUCUCGAUCUAACAAAAAAGACAAAUCUGCCACAAAGCUUGAGAGCAUCUUCGGAUGCAGAGGCGGCAGCCUUCGGUGGCGCGAUAGCGCCAACGUUCUCAACUAUGACACGCAAAACGCGUGCUCCGUUGAAUGGAGUUUAUCAUG

Variants of: B1
Experiment: polymerase ribozyme fitness, log enrichment relative to wild type (log ratio); higher = more active; in vitro selection for triplet polymerase activity
Outline: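 Frozen incubation at −7 °C formed the core of a single, triplicate in vitro selection round applied to PCR-built, transcribed mutant libraries of each subunit of a heterodimeric triplet polymerase ribozyme. Extended constructs were gel-excised, captured with streptavidin beads and amplified by RT-PCR, and input and output libraries were Illumina-sequenced with a filter of ≥10 input reads and ≥1 read per output. Fitness is the logarithm of genotype enrichment relative to wild-type enrichment, with inverse-variance-weighted replicate averaging, and the logarithm is base 2.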

Variant | polymerase ribozyme fitness (log ratio)
U6G A28U A41G G88C G143A U144C U146G | ≤ -4.2
G48C U102G | -2.42
A119U A121G U135C U146A A150G | -3.77
A3G A17U A47U U55G | -0.403
G84U G133A | ≤ -4.2
C32G G42A U77C G84U | ≤ -4.2
A60U U61A G86A C93A A110C G133A | ≤ -4.2
G58C G84U A97U | -3.58
A91C A98G A122U U144C A147U A150C | ≤ -4.2
C43G G86C A137G | ≤ -4.2
G88U A97U U102G G117U U139G | ≤ -4.2
A17G A19C G80C G92A C116U G136C G140A | ≤ -4.2
C79U C85G A138G | ≤ -4.2
A40G C99G | -3.79
U82C C95A | -1.46
A49U C87A | ≤ -4.2
G50U U77A C87A | ≤ -4.2
A73G G83C | -2.56
U9G A19C A23G A39G C93G U139A G152U | ≤ -4.2
C32G A91C G117U A137U | ≤ -4.2
G68A C96U | -3.68

Variant | polymerase ribozyme fitness (log ratio)
U53A C131A | -3.17
A73G C93U G152A | -2.84
G94A U101C | -0.823
G59A C103A A107U A110U U111A C118A A138G | ≤ -4.2
A16U A19C C57U G71C U134G G141U | ≤ -4.2
C8A U31G U33G A40U C51U U77C C93G C108G C116U A147G | ≤ -4.2
G81C C85U A89U A142G | -1.67
G50A C76A C96U | -3.13
G86A C114U | -2.15
G50U G83A A97U A98U | 0.0748
A19C A30U G50A A73C G80U G86A C118A U145G | ≤ -4.2
U6G A120C G136C | -3.69
G88C | -4.19
U56A C96U A119U | -0.585
G25A C76U C87A A110G A120G | ≤ -4.2
A16G A23U A29G A47C G50A C87G A106U U135C A147U | ≤ -4.2
C5G A20C | -0.472
A60G U61G C76A G124C C125G | ≤ -4.2
G42C U53A G83C G126U | ≤ -4.2
G58A G59A C96A | 0.0408
A17U A52U A142C | -3.3

Variant | polymerase ribozyme fitness (log ratio)
A17G C125A | 0.215
U15G U45C G71A G94U U134C A138U U145G | ≤ -4.2
C14G A20U U55A C85A C105U U134A | ≤ -4.2
A3G U9G C36A G67A G68C A73G U135G | ≤ -4.2
A24U G88C U139C U144C | ≤ -4.2
G71C U111G | ≤ -4.2
U55A C87U C93U | -4.13
U31G A91U | -4.03
C10U A29G A47C U55G A60U C95U U144A U146G | ≤ -4.2
U56C G133U | -4.01
G50C C123U | -2.4
U56G C69U A73U U134C G141U U146A | -2.72
C87U A89U | -1.2
U6A A28G A73G C93G C99A C131A | -4.19
A21G C32G G34C U56A G59C U82G G88U C103G G140U | ≤ -4.2
A91G C123U | -2.7
U56G A60G G84A | -0.664
A52C C57U U102G U146G | ≤ -4.2
C5U A20U C57U G68A C72U G92A | ≤ -4.2
U31A C43U U44G G62A G71A U90G A91C | ≤ -4.2
G59A C85U C149G | -3.59

Variant | polymerase ribozyme fitness (log ratio)
C10A A29C U44G G58A A60G A97U G141C | ≤ -4.2
A49G G50A U56A C95U U101C U111G | ≤ -4.2
A3C C14G C27U C85U U144G | -2.9
C87A C103A C114U | ≤ -4.2
A30U G46U U55G C79A U101G C108G C116U A119G G136U | ≤ -4.2
C38U G59A A60C | -1.48
G34U G94C | -3.96
A26G A66U C85A C95A G124C C131A | ≤ -4.2
A39U A52G U61A A73U A115U A150C | ≤ -4.2
G50U C57G | 0.0255
C14U G50C A98U C108A | ≤ -4.2
A40C G59C C63A G65U C87A C95U C125A G126U | ≤ -4.2
A12C A39U G88C A115C G126A | ≤ -4.2
A39U G62A | -2.58
U6A A60G C76A U144C | -0.452
C95U C103G | -1.69
A24C C43U C93G G141U | ≤ -4.2
C27U A120G C125A | -1.81
A39U U144C | -2.52
C8U A39C G59C C96U C103A C114U C116U | ≤ -4.2
A22U C27G G50C G58C A97G C103G A110U U139A | ≤ -4.2
